The source of these data is patent US20250034594A1, “RNA-GUIDED GENOME RECOMBINEERING AT KILOBASE SCALE” (THE BOARD OF TRUSTEES OF THE LELAND STANFORD JUNIOR …, priority 2021, published 2025).

What all share (type): cell-based
In one experiment the test system is gene editing with Cas9. Nature of the experiment: Screen of 322 new SSAP proteins, gene editing activity with Cas9 (Table 5). Set-up: Cas9 with SSAP activity: scale not given here. Summed up:
(§1)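 First, 322 new single-strand annealing proteins are identified from sequences. Next they are synthesized. Finally each is assayed for editing in combination with Cas9 and, separately, dCas9.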

In another experiment the test system is gene editing with dCas9. Nature of the experiment: Screen of 322 new SSAP proteins, gene editing activity with dCas9 (Table 5). Details: dCas9 with SSAP activity: scale not given here. The gist of the method:
as §1

The test system of experiment [1] is gene editing with Cas9 and dCas9. Put plainly: Screen of 322 new SSAP proteins, activity across all experiments (Cas9 and dCas9, Table 5). Details: scale not given here. Summed up: as §1

B1: SSAP_98: SEQ ID NO: 267; Pseudomonas fluorescens (protein, listed as Pseudomonas fluorescens)
chain: NSTAETATPFSSQDLEKTQPTKAQSKTGSLASLLASPKMKSQFAAALPKHMTPERMARIVTTEIRKNPELVKCEQHSFLGAVIQCAQLGLEPGNTLGHAYILPYGKQAQLIIGYRGMIDLARRSGQIISISARTVREGDYFEYEFGLDENLIHRPVETTQPGAVTHVYAVARLKDGGRQFEVMSRAQIEEVRVQSKAAKSGPWVTHWEEMAKKTVIRRVFKYLPVSVEIQRAVMLDEKAEAGVCQENECVFDGDFEVITDTEE
B1: in the experiment on gene editing with Cas9, the “Cas9 with SSAP activity” value was 0.754 and the “Cas9 with SSAP activity (normalized)” value came to 0.207. In addition, in the experiment with gene editing with dCas9, the “dCas9 with SSAP activity” value is recorded as −2.696 and the “dCas9 with SSAP activity (normalized)” value was −0.444. The “Activity across all experiments” value in experiment [1] is on record as −0.971.

B2: SSAP_319: SEQ ID NO: 488; Helicobacter trogontum (protein, listed as Helicobacter trogontum)
chain: SNITTIQRKNEALALLENKEIQERLCALCGNEASKDKFKASLLNIALDSNLSACSMQSIVKASLDIAGLKLSLNKNLGKAYIVPRKVKIGNDYITEARIDIGYKGWLELAKRSKLSVKAHSVFDCDDFVYSVDGVDEYMKLTPNFELRQEHDSAWVKEHLKGIVVGIKDLKSGDSEVKFVSKGTLLKIMQKNDSVKNGKYSAYTDWLHEMLLAKAIKSCLSKTAMSEDTFYLIISNNKLFI
Consider B2, for which, in the experiment on gene editing with Cas9, the “Cas9 with SSAP activity” value came to 0.742 and the “Cas9 with SSAP activity (normalized)” value came out at 1.773. In the experiment on gene editing with dCas9, the “dCas9 with SSAP activity” value is given as −2.508 and the “dCas9 with SSAP activity (normalized)” value was −0.276. The “Activity across all experiments” value in experiment [1] is reported as −0.883.

B3: SSAP_54: SEQ ID NO: 223; Bet Pseudomonas phage PS-1 (protein, listed as Pseudomonas sp.)
chain: SNVATIKPSSLSARMAERFGVDPNEMMATLKATAFKGQVSDAQMQALLIVADQYGLNPWTKEIYAFPDKGGIVPVVGVDGWSRIINENGAFDGMDFQQDDESCTCIIYRKDRNHPIKVTEWMAECKRNTQPWQSHPKRMLRHKAMIQCARLAFGYTGIFDEDEAQRIVEKDVTPAVNEPDITPALEAIKNASSMEELHAAFKAAWNQHPSARARLTAVKDERKKALSEPIEGELVENEDGPAQQ
For B3, in the experiment with gene editing with Cas9, the “Cas9 with SSAP activity” value is on record as −0.011 and the “Cas9 with SSAP activity (normalized)” value is −0.061. For the same molecule, in the experiment on gene editing with dCas9, the “dCas9 with SSAP activity” value is −2.517 and the “dCas9 with SSAP activity (normalized)” value is given as −0.565. The “Activity across all experiments” value in experiment [1] is −1.264.

B4: SSAP_104: SEQ ID NO: 273; Salinicoccus albus (protein, listed as Salinicoccus albus)
chain: STNESLKNQVATNQKNEVSNGNKPKTIGDYIDQMAPAMAQALPKHMSVERMTRMATTVIRTTPQLKEADVASLLGAVMQSAQLGLEPGPMGHCYFLPFKNNKKGTTEVTFIIGYKGMIDLARRSGHISTIYAHAVYENDEFEYELGLHADLKHKPSEDERGAFKGAYAVAHFKDGGYQFEYMPKSDIDKRRSRSKAGNSNYSPWATDYEEMAKKTVIRHMWKYLPVSVEMQQAVAHDEGTGKDIKDVTPDEDSFVDMPEYIADVPAEGEGE
Regarding B4, in the experiment on gene editing with Cas9, the “Cas9 with SSAP activity” value was −4.226 and the “Cas9 with SSAP activity (normalized)” value was −0.744. Moreover, in the experiment with gene editing with dCas9, the “dCas9 with SSAP activity” value is −2.685 and the “dCas9 with SSAP activity (normalized)” value is on record as −0.421. Moreover, in experiment [1], the “Activity across all experiments” value is reported as −3.455.

B5: SSAP_257: SEQ ID NO: 426; Listeria (multispecies) (protein, listed as Listeria sp.)
chain: ATNDELKNQLANKQNGGQVASAQSLDLKGLLEAPTMRKKFEKVLDKKAPQFLTSLLNLYNGDDYLQKTDPMTVVTSAMVAATLDLPIDKNLGYAWIVPYKGRAQFQLGYKGYIQLALRSGQYKSINVIEVREGELLKWNRLTEEIELDLDNNTSEKVVGYCGYFQLINGFEKTVYWTRKEIEAHKQKFSKSDFGWKKDYDAMAKKTVLRNMLSKWGILSIDMQTAVTEDEAEPRERKDVTEDESIPDIIDAPITPSDTLEAGSEVQGSMI
In the case of B5, in the experiment on gene editing with Cas9, the “Cas9 with SSAP activity” value is recorded as 0.216 and the “Cas9 with SSAP activity (normalized)” value came to 0.821. For the same molecule, in the experiment on gene editing with dCas9, the “dCas9 with SSAP activity” value is given as −2.649 and the “dCas9 with SSAP activity (normalized)” value is reported as −1.189. Also, in experiment [1], the “Activity across all experiments” value is reported as −1.217.

B6: SSAP_274: SEQ ID NO: 443; Clostridium liquoris (protein, listed as Clostridium liquoris)
chain: TTASELKNQLATRKETGVGSAGNTVKGLLESPAIKKRFEEVLKQRAPQYMSSIVNLVNGDANLKKCDQMSVIASCMVAATLDLPVDKNLGYAWVVPYGNKAQFQLGYKGYVQLALRTGQYKSINVIEIHEGELIEWNPLTEELRIDFEKKKSDAIIGYAGYFELINGFRKSTYWTKEQITKHKNKFSKSDFGWKKDFDAMAKKTVLRNMLSKWGILSIEMQNAYTADQETIKSEVLETGNIKENVEYVEADFDVDFEGTPFEEGVTNE
Turning to B6, in the experiment with gene editing with Cas9, the “Cas9 with SSAP activity” value was 0.280 and the “Cas9 with SSAP activity (normalized)” value was determined as 0.259. For the same molecule, in the experiment with gene editing with dCas9, the “dCas9 with SSAP activity” value is on record as −2.423 and the “dCas9 with SSAP activity (normalized)” value is given as −0.328. Also, the “Activity across all experiments” value in experiment [1] was −1.072.

B7: SSAP_154: SEQ ID NO: 323; Corynebacterium urealyticum (protein, listed as Corynebacterium urealyticum)
chain: AKNLEARMQQSTNAPARADKPLSLPDQIRQMEDQFRLAMPKGAEATQLVRDALTCLRQTPQLAQCTPASVLGGLMTCAQLGLRPGVLGHAYLIPFNDRRSGNSVAQLVIGYQGLVELAHRSGQIKALIARTVYENDHFDVDYGLEDKLVHKPHMGADKGNPVAYYAVVKFTTGGHAFYVMSHPEMLQYRDKNAKSPKRGPWVDNFEAMAHKTCVRQLAKWMPKSTEFSQALATDESIRLDVTPDAINYPDHPAEGEVIDGEVEQDGGQQ
As to B7, in the experiment on gene editing with Cas9, the “Cas9 with SSAP activity” value is on record as −0.806 and the “Cas9 with SSAP activity (normalized)” value is reported as −0.733. In addition, in the experiment on gene editing with dCas9, the “dCas9 with SSAP activity” value is on record as −2.710 and the “dCas9 with SSAP activity (normalized)” value is −0.380. Moreover, the “Activity across all experiments” value in experiment [1] is −1.758.

B8: SSAP_145: SEQ ID NO: 314; Roseburia sp. CAG: 182 (protein, listed as Roseburia sp.)
chain: DVKEELAKMAEEKPTKKLTKSMSIQDMIKVIEPEIKKALPSVLTPERFTRMALSAINNTPKLAECSQISFLAALMNAAQLGLEPNTPLGQAYLIPFQNKGKLECQFQIGYKGIIELVYRNPLIQTIQAQVVYENDEFEYELGLNSRLFHRPALYDRGETVLFYALFKMSNGGYGFEVLSKQDMDAYAKRYSKGISSEYSPWKSNYEEMAKKTMIKKVLKYAPIRTDFQKAVSMDESIKKELSVDMSEVSNENIIDMEEITQEEE
As for B8, in the experiment with gene editing with Cas9, the “Cas9 with SSAP activity” value was −0.211 and the “Cas9 with SSAP activity (normalized)” value is given as −0.214. Further, in the experiment on gene editing with dCas9, the “dCas9 with SSAP activity” value is given as −2.440 and the “dCas9 with SSAP activity (normalized)” value is on record as −0.309. For the same molecule, in experiment [1], the “Activity across all experiments” value is given as −1.325.

B9: SSAP_314: SEQ ID NO: 483; Ferrimonas kyonanensis (protein, listed as Ferrimonas kyonanensis)
chain: NQMINEPDFVTALKDSRETYIDLTQNGGFNLNYGLEAGWAHQQIEASRYQNLDLTCSEPGSIMQAFCEAARLGLSFDPRKKHIYLMGQKDVQSGRTITILYVGYKGMIALACRTGFMIGGHADLVFEEDTFTYRSGTQLPVHEHDGRPNHERGRLKCGYVVAHQPGGMVKTLLVPKEVLLEAASNGLNAGGSNNTWCGPYMEMMYQKTCWRYAFNAWYSELEAVGMTQAQLESATTAVSYQ
As for B9, in the experiment with gene editing with Cas9, the “Cas9 with SSAP activity” value is 0.114 and the “Cas9 with SSAP activity (normalized)” value was found to be 0.106. Also, in the experiment with gene editing with dCas9, the “dCas9 with SSAP activity” value is on record as −2.593 and the “dCas9 with SSAP activity (normalized)” value is −0.657. Further, the “Activity across all experiments” value in experiment [1] is listed as −1.240.

B10: SSAP_242: SEQ ID NO: 411; Lactococcus sp. S-13 (protein, listed as Lactococcus sp.)
chain: SNQITKTQQTLKSPEVKAKFEEVLGKKADGFVASLLSVVGNSNLKTVEANSVMTAAMKAATLDLPIEPSLGFAYVIPYGREAQFQIGYKGFIQLALRSGQLTGLNCGIVYESQFVSYDPLFEELELDFTQQASGDAVGYFASMKLANGFKKVTYWSKEQVLAHKKKFVKSANGPWRDHFDAMAQKTVLKAMLTKYAPASIESKMIQTAITEDDSERFENAKDVTPDEPVISIDEPVTSEVSQNESSAESQEQFPEDEVEELFPIGKS
As for B10, in the experiment with gene editing with Cas9, the “Cas9 with SSAP activity” value is 2.358 and the “Cas9 with SSAP activity (normalized)” value is reported as 1.579. For the same molecule, in the experiment on gene editing with dCas9, the “dCas9 with SSAP activity” value is recorded as 3.640 and the “dCas9 with SSAP activity (normalized)” value is recorded as 2.062. In addition, the “Activity across all experiments” value in experiment [1] worked out at 2.999.

B11: SSAP_129: SEQ ID NO: 298; Lacrimispora indolis (protein, listed as Lacrimispora indolis)
chain: SDVKQELEKRAAGGGGQSQSVRLTKNMTIVDMVKALEPEIKRALPSILTPERFTRMALSAINNTPKLGECTPMSFIAALMNAAQLGLEPNTPLGQAYLIPYKNKGVLECQFQLGYRGLIDLAYRNERMQSVEAQVVYENDEFSYELGLHPSLIHRPSFDEPGEIRAFYAIFRLDNGGFRFEVMSKSYVDAYAARYSKAFTSDFSPWKSNYEGMAKKTVIKQLLKYAPMKSEFQKAVTMDETIKTELSVDMSEVSNQEVIDRELTEQVA
Take B11: in the experiment with gene editing with Cas9, the “Cas9 with SSAP activity” value was 0.031 and the “Cas9 with SSAP activity (normalized)” value is reported as 0.019. Moreover, in the experiment with gene editing with dCas9, the “dCas9 with SSAP activity” value was −2.431 and the “dCas9 with SSAP activity (normalized)” value is given as −0.313. For the same molecule, in experiment [1], the “Activity across all experiments” value is −1.200.

B12: SSAP_30: SEQ ID NO: 199 (protein)
chain: EKPKLIQRFAERFSVDPNKLFDTLKATAFKQRDGSAPTNEQMMALLVVADQYGLNPFTKEIFAFPDKQAGIIPVVGVDGWSRIINQHDQFDGMEFKTSETKVSLDGAKECPEWMECIIYRRDRSHPVKITEYLDEVYRPPFEGNGKNGPYRVDGPWQTHTKRMLRHKSMIQCSRIAFGFVGIFDQDEAERIIEGQATHVVEPSVIPPEQVDDRTRGLVYKLIERAEASNAWNSALEYANEHFQGVELTFAKQEIFNAQQQAAKALTQPLAS
In the case of B12, in the experiment on gene editing with Cas9, the “Cas9 with SSAP activity” value is recorded as 0.813 and the “Cas9 with SSAP activity (normalized)” value is listed as 0.564. Further, in the experiment on gene editing with dCas9, the “dCas9 with SSAP activity” value is listed as −2.667 and the “dCas9 with SSAP activity (normalized)” value is −0.795. Moreover, in experiment [1], the “Activity across all experiments” value is −0.927.
